Data taken from patent publication US20250388650A1 (ENOSI THERAPEUTICS, published 2025).
Blank lines part the entries; values can stand above or below the molecule they belong to.

Tests used:
NRG1 = NRG1 (UniProt Q02297); assay: cell-based or functional assay
[1] = target: EN2320 (HER3/Fc homodimer) (human, UniProt P21860 20-640); assay: SPR (Biacore 8K), trap on anti-human Fc chip
HF310 (HER3-500) = target: T1, HF310 (HER3-500) (human, UniProt P21860 20-519); assay: 125I-HRG cross-linking normalised by anti-HER3 Western blot densitometry
T1 construct: also called HER3-501; HF310T
T1 sequence (P21860 20-519 limits assumed): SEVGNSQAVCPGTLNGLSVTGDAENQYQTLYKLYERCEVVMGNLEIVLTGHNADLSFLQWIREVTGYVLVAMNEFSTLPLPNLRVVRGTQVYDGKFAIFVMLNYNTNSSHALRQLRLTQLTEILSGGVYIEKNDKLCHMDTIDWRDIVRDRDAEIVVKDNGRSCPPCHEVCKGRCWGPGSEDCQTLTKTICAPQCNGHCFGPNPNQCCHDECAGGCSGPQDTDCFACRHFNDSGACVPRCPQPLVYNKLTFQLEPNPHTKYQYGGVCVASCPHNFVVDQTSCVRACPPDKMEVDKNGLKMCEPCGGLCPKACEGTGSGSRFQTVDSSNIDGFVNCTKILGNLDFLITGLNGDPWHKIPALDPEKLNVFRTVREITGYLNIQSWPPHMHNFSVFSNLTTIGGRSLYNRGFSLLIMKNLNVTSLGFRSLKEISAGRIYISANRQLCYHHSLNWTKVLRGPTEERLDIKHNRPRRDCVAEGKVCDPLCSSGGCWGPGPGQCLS
Method: Binding was performed by mixing increasing amounts of supernatants (from 2.5 μl-20 μl of supernatant) with 5 nM of ¹²⁵I-HRG in a total volume of 20 μl of Hepes buffer (pH 7.5) at room temperature for 2 hours. 1 mM of the BS₃ crosslinker was added at the end of the binding assay to cross-link the bound molecules. Binding reactions were separated on an SDS-PAGE gel. The protein gel was dried and exposed to a film for 2 and 6 hours.
A parallel Western blot with an anti-HER3 antibody (R&D Systems), followed by densitometry was used to estimate relative HER3-derivative levels and then to normalize ligand binding to each protein based on equal number of binding sites, which are the equivalent to anti-HER3 binding sites.

Sequence of EN2320 (HER3/Fc homodimer) (P21860 20-640 Y265A): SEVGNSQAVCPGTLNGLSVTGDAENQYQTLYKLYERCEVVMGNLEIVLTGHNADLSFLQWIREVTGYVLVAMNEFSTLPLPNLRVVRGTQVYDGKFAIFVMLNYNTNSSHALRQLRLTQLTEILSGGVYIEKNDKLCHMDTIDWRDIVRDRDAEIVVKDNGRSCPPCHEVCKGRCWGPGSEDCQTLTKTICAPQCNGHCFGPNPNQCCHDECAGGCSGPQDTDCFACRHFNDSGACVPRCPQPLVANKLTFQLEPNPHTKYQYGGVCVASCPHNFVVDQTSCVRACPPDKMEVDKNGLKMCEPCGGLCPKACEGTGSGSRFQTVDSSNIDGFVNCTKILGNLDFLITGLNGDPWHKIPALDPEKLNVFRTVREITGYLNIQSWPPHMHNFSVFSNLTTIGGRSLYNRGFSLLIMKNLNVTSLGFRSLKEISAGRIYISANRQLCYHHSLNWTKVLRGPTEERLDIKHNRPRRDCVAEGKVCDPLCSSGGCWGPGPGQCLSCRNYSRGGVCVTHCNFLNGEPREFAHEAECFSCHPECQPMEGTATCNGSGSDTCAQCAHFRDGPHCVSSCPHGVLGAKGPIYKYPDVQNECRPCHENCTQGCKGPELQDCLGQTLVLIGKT

Molecule: HER3^Y246A/Fc (from UniProt P21860 20-640) (Fc fusion)
Approximate EC50, inhibition of NRG1-β-induced HER3 phosphorylation (MCF7 cells, phosphotyrosine ELISA) (NRG1): 1.5 nM

B3: NRG1 (ligand, UniProt Q02297-6 177-241, looked up)
chain: SHLVKCAEKEKTFCVNGGECFMVKDLSNPSRYLCKCPNEFTGDRCQNYVMASFYKHLGIEFMEAE
notes: also called NRG1_R&D; NRG1-R&D
Kd [1]: 0.389 nM
koff [1]: 0.379 s⁻¹
kon [1]: 9.76e+08 M⁻¹ s⁻¹

The next lines start with the values.

Kd [1]: 43.3 nM
koff [1]: 0.0247 s⁻¹
kon [1]: 571000 M⁻¹ s⁻¹
B1: NRG2-beta (ligand, UniProt O14511-3 341-405, looked up)
chain: HARKCNETAKSYCVNGGVCYYIEGINQLSCKCPNGFFGQRCLEKLPLRLYMPDPKQKHLGFELKE

binding result (HF310 (HER3-500)): binds
B2: heregulin (HRG) (ligand, UniProt Q02297-6 177-241, looked up)
chain: B3 chain
modifications: also: 125I label, site not given here
notes: also called HRG1β1
